This passage reports Kd results from article doi:10.1101/2020.01.02.892901.

This assay concerns the target MET pY1313 phosphopeptide (human). Kind of assay: fluorescence polarisation.

Where “and” joins values, the source holds several entries; their conditions need not be identical. Identical values can stand only once.

For “FGR SH2 domain (from UniProt P09769 144-241) (domain or fragment)”, the Kd was 3 µM and 12 µM.
